In patent US10919943B2, “Mutant proteins enabling agrochemical control of plant gene expression” (The Regents of the University of California, priority 2016, dated 2021):

Tested on: HAB1
Experiment: Yeast two hybrid of pBD-PYR1 site saturation mutants with pACT-HAB1 on 10 μM ABA, β-galactosidase staining
Type: cell-based, Arabidopsis
Parameters: key: x: Mutations in PYR1 that disrupt ABA-induced binding to PYR1 to HAB1
Conditions: S. cerevisiae Y190, 10 μM ABA; dead = lack of visible staining in comparison to wild type control
Text: To systematically identify mutations in PYR1 that disrupt its binding to HAB1, we utilized a collection of saturating mutations that contain all possible single amino acid substitutions in 24 conserved interface residues involved in binding HAB1, which was previously constructed for the purpose of engineering constitutively active ABA receptor variants (Mosquna et al., 2011). The interface residues previously mutagenized in this collection are the following: H60, F61, I62, K63, I84, S85, G86, L87, P88, A89, H115, R116, L117, P148, G150, N151, D154, D155, T156, M158, F159, T162, L166, K170. This set was made by mutagenizing a pBD-PYR1 template that encodes a GAL4-DNA binding domain fusion to PYR1, which can be used to assess receptor-HAB1 binding in S. cerevisiae strains co-transformed with pACT-HAB1, which expresses a GAL4 activation domain fusion to HAB1. Mutant pBD-PYR1 clones from the collection are maintained in S. cerevisiae strain Y190 co-transformed with pACT-HAB1. The test strains were spotted onto agar plates containing synthetic dextrose dropout media lacking leucine and tryptophan [SD (-Leu, -Trp)] medium supplemented with 10 μM ABA. After incubating the test plates at 30° C. for two days, colonies were chloroform lysed and stained to reveal […] expression levels and “dead” mutants were defined by lack of visible staining in comparison to a wild type control. This effort defined 237 mutations that disrupt ABA-induced binding of PYR1 to HAB1 (Table 1). Premade yeast drop out supplements (Clontech) were utilized in this and other examples for media preparation, amino acids and other standard chemicals were purchased from Sigma-Aldrich (USA). The naturally occurring (+)-ABA isomer was used in all experiments and purchased from Biosynth Ag (Switzerland).

Row | Mutations in PYR1 that disrupt ABA-induced binding to PYR1 to HAB1 | Molecule
1 | x | L87A: PYR1 mutant (protein, UniProt O49686 1-191, looked up, variant L87A) Abscisic acid receptor PYR1: MPSELTPEERSELKNSIAEFHTYQLDPGSCSSLHAQRIHAPPELVWSIVRRFDKPQTYKHFIKSCSVEQNFEMRVGCTRDVIVISGAPANTSTERLDILDDERRVTGFSIIGGEHRLTNYKSVTTVHRFEKENRIWTVVLESYVVDMPEGNSEDDTRMFADTVVKLNLQKLATVAEAMARNSGDGSGSQVT
2 | x | L87W: PYR1 mutant (protein, UniProt O49686 1-191, looked up, variant L87W) Abscisic acid receptor PYR1: MPSELTPEERSELKNSIAEFHTYQLDPGSCSSLHAQRIHAPPELVWSIVRRFDKPQTYKHFIKSCSVEQNFEMRVGCTRDVIVISGWPANTSTERLDILDDERRVTGFSIIGGEHRLTNYKSVTTVHRFEKENRIWTVVLESYVVDMPEGNSEDDTRMFADTVVKLNLQKLATVAEAMARNSGDGSGSQVT
3 | x | P88Q: PYR1 mutant (protein, UniProt O49686 1-191, looked up, variant P88Q) Abscisic acid receptor PYR1: MPSELTPEERSELKNSIAEFHTYQLDPGSCSSLHAQRIHAPPELVWSIVRRFDKPQTYKHFIKSCSVEQNFEMRVGCTRDVIVISGLQANTSTERLDILDDERRVTGFSIIGGEHRLTNYKSVTTVHRFEKENRIWTVVLESYVVDMPEGNSEDDTRMFADTVVKLNLQKLATVAEAMARNSGDGSGSQVT
4 | x | P88M: PYR1 mutant (protein, UniProt O49686 1-191, looked up, variant P88M) Abscisic acid receptor PYR1: MPSELTPEERSELKNSIAEFHTYQLDPGSCSSLHAQRIHAPPELVWSIVRRFDKPQTYKHFIKSCSVEQNFEMRVGCTRDVIVISGLMANTSTERLDILDDERRVTGFSIIGGEHRLTNYKSVTTVHRFEKENRIWTVVLESYVVDMPEGNSEDDTRMFADTVVKLNLQKLATVAEAMARNSGDGSGSQVT
5 | x | L87C: PYR1 mutant (protein, UniProt O49686 1-191, looked up, variant L87C) Abscisic acid receptor PYR1: MPSELTPEERSELKNSIAEFHTYQLDPGSCSSLHAQRIHAPPELVWSIVRRFDKPQTYKHFIKSCSVEQNFEMRVGCTRDVIVISGCPANTSTERLDILDDERRVTGFSIIGGEHRLTNYKSVTTVHRFEKENRIWTVVLESYVVDMPEGNSEDDTRMFADTVVKLNLQKLATVAEAMARNSGDGSGSQVT
6 | x | L87H: PYR1 mutant (protein, UniProt O49686 1-191, looked up, variant L87H) Abscisic acid receptor PYR1: MPSELTPEERSELKNSIAEFHTYQLDPGSCSSLHAQRIHAPPELVWSIVRRFDKPQTYKHFIKSCSVEQNFEMRVGCTRDVIVISGHPANTSTERLDILDDERRVTGFSIIGGEHRLTNYKSVTTVHRFEKENRIWTVVLESYVVDMPEGNSEDDTRMFADTVVKLNLQKLATVAEAMARNSGDGSGSQVT
7 | x | P88L: PYR1 mutant (protein, UniProt O49686 1-191, looked up, variant P88L) Abscisic acid receptor PYR1: MPSELTPEERSELKNSIAEFHTYQLDPGSCSSLHAQRIHAPPELVWSIVRRFDKPQTYKHFIKSCSVEQNFEMRVGCTRDVIVISGLLANTSTERLDILDDERRVTGFSIIGGEHRLTNYKSVTTVHRFEKENRIWTVVLESYVVDMPEGNSEDDTRMFADTVVKLNLQKLATVAEAMARNSGDGSGSQVT
8 | x | L87N: PYR1 mutant (protein, UniProt O49686 1-191, looked up, variant L87N) Abscisic acid receptor PYR1: MPSELTPEERSELKNSIAEFHTYQLDPGSCSSLHAQRIHAPPELVWSIVRRFDKPQTYKHFIKSCSVEQNFEMRVGCTRDVIVISGNPANTSTERLDILDDERRVTGFSIIGGEHRLTNYKSVTTVHRFEKENRIWTVVLESYVVDMPEGNSEDDTRMFADTVVKLNLQKLATVAEAMARNSGDGSGSQVT
9 | x | L87Q: PYR1 mutant (protein, UniProt O49686 1-191, looked up, variant L87Q) Abscisic acid receptor PYR1: MPSELTPEERSELKNSIAEFHTYQLDPGSCSSLHAQRIHAPPELVWSIVRRFDKPQTYKHFIKSCSVEQNFEMRVGCTRDVIVISGQPANTSTERLDILDDERRVTGFSIIGGEHRLTNYKSVTTVHRFEKENRIWTVVLESYVVDMPEGNSEDDTRMFADTVVKLNLQKLATVAEAMARNSGDGSGSQVT
10 | x | P88R: PYR1 mutant (protein, UniProt O49686 1-191, looked up, variant P88R) Abscisic acid receptor PYR1: MPSELTPEERSELKNSIAEFHTYQLDPGSCSSLHAQRIHAPPELVWSIVRRFDKPQTYKHFIKSCSVEQNFEMRVGCTRDVIVISGLRANTSTERLDILDDERRVTGFSIIGGEHRLTNYKSVTTVHRFEKENRIWTVVLESYVVDMPEGNSEDDTRMFADTVVKLNLQKLATVAEAMARNSGDGSGSQVT
11 | x | L87D: PYR1 mutant (protein, UniProt O49686 1-191, looked up, variant L87D) Abscisic acid receptor PYR1: MPSELTPEERSELKNSIAEFHTYQLDPGSCSSLHAQRIHAPPELVWSIVRRFDKPQTYKHFIKSCSVEQNFEMRVGCTRDVIVISGDPANTSTERLDILDDERRVTGFSIIGGEHRLTNYKSVTTVHRFEKENRIWTVVLESYVVDMPEGNSEDDTRMFADTVVKLNLQKLATVAEAMARNSGDGSGSQVT
12 | x | L87Y: PYR1 mutant (protein, UniProt O49686 1-191, looked up, variant L87Y) Abscisic acid receptor PYR1: MPSELTPEERSELKNSIAEFHTYQLDPGSCSSLHAQRIHAPPELVWSIVRRFDKPQTYKHFIKSCSVEQNFEMRVGCTRDVIVISGYPANTSTERLDILDDERRVTGFSIIGGEHRLTNYKSVTTVHRFEKENRIWTVVLESYVVDMPEGNSEDDTRMFADTVVKLNLQKLATVAEAMARNSGDGSGSQVT
13 | x | L87E: PYR1 mutant (protein, UniProt O49686 1-191, looked up, variant L87E) Abscisic acid receptor PYR1: MPSELTPEERSELKNSIAEFHTYQLDPGSCSSLHAQRIHAPPELVWSIVRRFDKPQTYKHFIKSCSVEQNFEMRVGCTRDVIVISGEPANTSTERLDILDDERRVTGFSIIGGEHRLTNYKSVTTVHRFEKENRIWTVVLESYVVDMPEGNSEDDTRMFADTVVKLNLQKLATVAEAMARNSGDGSGSQVT
14 | x | L87T: PYR1 mutant (protein, UniProt O49686 1-191, looked up, variant L87T) Abscisic acid receptor PYR1: MPSELTPEERSELKNSIAEFHTYQLDPGSCSSLHAQRIHAPPELVWSIVRRFDKPQTYKHFIKSCSVEQNFEMRVGCTRDVIVISGTPANTSTERLDILDDERRVTGFSIIGGEHRLTNYKSVTTVHRFEKENRIWTVVLESYVVDMPEGNSEDDTRMFADTVVKLNLQKLATVAEAMARNSGDGSGSQVT
15 | x | P88N: PYR1 mutant (protein, UniProt O49686 1-191, looked up, variant P88N) Abscisic acid receptor PYR1: MPSELTPEERSELKNSIAEFHTYQLDPGSCSSLHAQRIHAPPELVWSIVRRFDKPQTYKHFIKSCSVEQNFEMRVGCTRDVIVISGLNANTSTERLDILDDERRVTGFSIIGGEHRLTNYKSVTTVHRFEKENRIWTVVLESYVVDMPEGNSEDDTRMFADTVVKLNLQKLATVAEAMARNSGDGSGSQVT
16 | x | L87R: PYR1 mutant (protein, UniProt O49686 1-191, looked up, variant L87R) Abscisic acid receptor PYR1: MPSELTPEERSELKNSIAEFHTYQLDPGSCSSLHAQRIHAPPELVWSIVRRFDKPQTYKHFIKSCSVEQNFEMRVGCTRDVIVISGRPANTSTERLDILDDERRVTGFSIIGGEHRLTNYKSVTTVHRFEKENRIWTVVLESYVVDMPEGNSEDDTRMFADTVVKLNLQKLATVAEAMARNSGDGSGSQVT
17 | x | L87G: PYR1 mutant (protein, UniProt O49686 1-191, looked up, variant L87G) Abscisic acid receptor PYR1: MPSELTPEERSELKNSIAEFHTYQLDPGSCSSLHAQRIHAPPELVWSIVRRFDKPQTYKHFIKSCSVEQNFEMRVGCTRDVIVISGGPANTSTERLDILDDERRVTGFSIIGGEHRLTNYKSVTTVHRFEKENRIWTVVLESYVVDMPEGNSEDDTRMFADTVVKLNLQKLATVAEAMARNSGDGSGSQVT
18 | x | L87K: PYR1 mutant (protein, UniProt O49686 1-191, looked up, variant L87K) Abscisic acid receptor PYR1: MPSELTPEERSELKNSIAEFHTYQLDPGSCSSLHAQRIHAPPELVWSIVRRFDKPQTYKHFIKSCSVEQNFEMRVGCTRDVIVISGKPANTSTERLDILDDERRVTGFSIIGGEHRLTNYKSVTTVHRFEKENRIWTVVLESYVVDMPEGNSEDDTRMFADTVVKLNLQKLATVAEAMARNSGDGSGSQVT
19 | x | L87S: PYR1 mutant (protein, UniProt O49686 1-191, looked up, variant L87S) Abscisic acid receptor PYR1: MPSELTPEERSELKNSIAEFHTYQLDPGSCSSLHAQRIHAPPELVWSIVRRFDKPQTYKHFIKSCSVEQNFEMRVGCTRDVIVISGSPANTSTERLDILDDERRVTGFSIIGGEHRLTNYKSVTTVHRFEKENRIWTVVLESYVVDMPEGNSEDDTRMFADTVVKLNLQKLATVAEAMARNSGDGSGSQVT
